What is called Km is the substrate concentration at which the rate is half of its maximum. A word on the kcat: it is the maximal rate divided by the concentration of active sites. Broadly, the kcat/Km is the turnover number divided by the Michaelis constant.

Numbering of substitutions follows the chain as printed. Names and notes keep the numbering of the source.

Substrate in data set [1]: CC(C)=CCC/C(C)=C\COP(=O)(O)OP(=O)(O)O
Put plainly: GC-MS of hexane-extracted monoterpene products. The data set is classed as biochemical, Citrus x limon. The following applies: 20 mM MOPS pH 7.0, 20 mM MgCl2, 0.02 mM MnCl2, 30 °C, 1 h. The text has this:
(§1) GC-MS of hexane-extracted monoterpene products on […]

Substrate in data set [2]: CC(C)=CCC/C(C)=C/COP(=O)(O)OP(=O)(O)O
Put plainly: GC-MS of hexane-extracted monoterpene products. In kind it is biochemical, Citrus x limon. The following applies: 20 mM MOPS pH 7.0, 20 mM MgCl2, 0.02 mM MnCl2, 30 °C, 1 h.
Description: as §1

Substrate in data set [3]: CC(C)=CCOP(=O)(O)OP(=O)(O)O
Put plainly: GC-MS after acid hydrolysis of prenyl diphosphates. The data set is classed as biochemical, Solanum lycopersicum. The note with it: 0.05 mM IPP, 10 mM MOPS pH 7.0, 5 mM MgCl2, 30 °C, 1 h.

Substrate in the data set “purified protein”: C=C(C)CCO[P@@](=O)(O)OP(=O)(O)O
Kind of data set: purified protein. The following applies: 0.05 mM DMAPP, 10 mM MOPS pH 7.0, 5 mM MgCl2, 30 °C, 1 h.

Substrate in data set [4]: CC(C)=CCC/C(C)=C\COP(=O)(O)OP(=O)(O)O
Put plainly: GC-MS of hexane-extracted monoterpene products. In kind it is biochemical, Salvia fruticosa. The note with it: 20 mM MOPS pH 7.0, 20 mM MgCl2, 0.02 mM MnCl2, 30 °C, 1 h. The text has this: (§2) GC-MS of hexane-extracted monoterpene products on […]1

Substrate in data set [5]: CC(C)=CCC/C(C)=C/COP(=O)(O)OP(=O)(O)O
Kind of data set: GC-MS of hexane-extracted monoterpene products. The data set is classed as biochemical, Salvia fruticosa. The note with it: 20 mM MOPS pH 7.0, 20 mM MgCl2, 0.02 mM MnCl2, 30 °C, 1 h.
Description: as §2

B1: ClLimS (Citrus x limon) (protein)
chain: AKYKPVQCLISAKYDNLTVDRRSANYQPSIWDHDFLQSLNSNYTDEAYKRRAEELRGKVKIAIKDVIEPLDQLELIDNLQRLGLAHRFETEIRNILNNIYNNNKDYNWRKENLYATSLEFRLLRQHGYPVSQEVFNGFKDDQGGFICDDFKGILSLHEASYYSLEGESIMEEAWQFTSKHLKEVMISKNMEEDVFVAEQAKRALELPLHWKVPMLEARWFIHIYERREDKNHLLLELAKMEFNTLQAIYQEELKEISGWWKDTGLGEKLSFARNRLVASFLWSMGIAFEPQFAYCRRVLTISIALITVIDDIYDVYGTLDELEIFTDAVERWDINYALKHLPGYMKMCFLALYNFVNEFAYYVLKQQDFDLLLSIKNAWLGLIQAYLVEAKWYHSKYTPKLEEYLENGLVSITGPLIITISYLSGTNPIIKKELEFLESNPDIVHWSSKIFRLQDDLGTSSDEIQRGDVPKSIQCYMHETGASEEVARQHIKDMMRQMWKKVNAYTADKDSPLTGTTTEFLLNLVRMSHFMYLHGDGHGVQNQETIDVGFTLLFQPIPLEDKHMAFTASPGTKG
notes: 6xHis-tagged, E. coli BL21(DE3), Ni-NTA purified; printed as (+)-S-limonene synthase
With B1, in data set [1], the Km was determined as 81.55 ± 7.33 µM, the catalytic constant (kcat) amounted to 0.619 ± 0.0293 s⁻¹ and the specificity constant (kcat/Km) came out at 7600 M⁻¹ s⁻¹. Further, in data set [2], the Km was determined as 24.94 ± 3.76 µM, the kcat worked out at 0.306 ± 0.0147 s⁻¹ and the kcat/Km turned out to be 12200 M⁻¹ s⁻¹.

B2: ClLimS (Citrus x limon; H570I) (protein)
chain: B1 chain with H538I
notes: as for B1
Consider B2, for which, in data set [1], the Michaelis-Menten constant (Km) was 27.06 ± 4.72 µM, the catalytic constant (kcat) stood at 0.0317 ± 0.00217 s⁻¹ and the kcat/Km is 1170 M⁻¹ s⁻¹. In data set [2], the Km was determined as 24.43 ± 6.44 µM, the kcat worked out at 0.0035 ± 0.000333 s⁻¹ and the kcat/Km came out at 150 M⁻¹ s⁻¹.

B3: ClLimS (Citrus x limon; H570Y) (protein)
chain: B1 chain with H538Y
notes: as for B1
Regarding B3, in data set [1], the Km was found to be 23.98 ± 6.41 µM, the kcat was 0.364 ± 0.0277 s⁻¹ and the kcat/Km was found to be 15200 M⁻¹ s⁻¹. In data set [2], the Km was determined as 11.76 ± 4.82 µM, the kcat was found to be 0.149 ± 0.00717 s⁻¹ and the catalytic efficiency (kcat/Km) was found to be 12600 M⁻¹ s⁻¹.

B4: SlNPPS1 (Solanum lycopersicum) (protein)
chain: SARGLNKISCSLNLQTEKLCYEDNDNDLDEELMPKHIALIMDGNRRWAKDKGLEVYEGHKHIIPKLKEICDISSKLGIQIITAFAFSTENWKRSKEEVDFLLQMFEEIYDEFSRSGVRVSIIGCKSDLPMTLQKCIALTEETTKGNKGLHLVIALNYGGYYDILQATKSIVNKAMNGLLDVEDINKNLFDQELESKCPNPDLLIRTGGEQRVSNFLLWQLAYTEFYFTNTLFPDFGEEDLKEAIMNFQQRHRRFGGHTY
For B4, the Michaelis constant (Km) in data set [3] was 66.72 ± 6.32 µM; in the data set “purified protein” it was 83.69 ± 17.41 µM. In addition, the values for the kcat (in data set [3]; in the data set “purified protein”) were 0.000617 ± 1.7e-05 s⁻¹ and 0.000683 ± 5e-05 s⁻¹, respectively.

B5: SfCinS1 (Salvia fruticosa; F571V) (protein)
chain: CSLQTGNEIQTERRTGGYQPTLWDFSTIQSFDSEYKEEKHLMRAAGMIDQVKMMLQEEVDSIRRLELIDDLRRLGISCHFEREIVEILNSKYYTNNEIDERDLYSTALRFRLLRQYDFSVSQEVFDCFKNAKGTDFKPSLVDDTRGLLQLYEASFLSAQGEETLRLARDFATKFLQKRVLVDKDINLLSSIERALELPTHWRVQMPNARSFIDAYKRRPDMNPTVLELAKLDFNMVQAQFQQELKEASRWWNSTGLVHELPFVRDRIVECYYWTTGVVERRQHGYERIMLTKINALVTTIDDVFDIYGTLEELQLFTTAIQRWDIESMKQLPPYMQICYLALFNFVNEMAYDTLRDKGFDSTPYLRKVWVGLIESYLIEAKWYYKGHKPSLEEYMKNSWISIGGIPILSHLFFRLTDSIEEEAAESMHKYHDIVRASCTILRLADDMGTSLDEVERGDVPKSVQCYMNEKNASEEEAREHVRSLIDQTWKMMNKEMMTSSFSKYFVEVSANLARMAQWIYQHESDGVGMQHSLVNKMLRDLLFHRYE
notes: 6xHis-tagged, E. coli BL21(DE3), Ni-NTA purified
In the case of B5, in data set [4], the Michaelis-Menten constant (Km) was found to be 67.24 ± 13.30 µM, the turnover number (kcat) amounted to 0.0075 ± 0.000667 s⁻¹ and the catalytic efficiency (kcat/Km) is 117 M⁻¹ s⁻¹. In data set [5], the Km was found to be 271.5 ± 95.30 µM, the kcat amounted to 0.00533 ± 0.00133 s⁻¹ and the kcat/Km is 16.7 M⁻¹ s⁻¹.

B6: SfCinS1 (Salvia fruticosa) (protein)
chain: B5 chain with V527F
notes: as for B5
Consider B6, for which, in data set [4], the Km stood at 89.46 ± 4.99 µM, the turnover number (kcat) came to 0.203 ± 0.0445 s⁻¹ and the kcat/Km was 2280 M⁻¹ s⁻¹. Also, in data set [5], the Michaelis constant (Km) amounted to 26.12 ± 2.79 µM, the kcat is 0.0927 ± 0.00633 s⁻¹ and the specificity constant (kcat/Km) worked out at 3550 M⁻¹ s⁻¹.

B7: SfCinS1 (Salvia fruticosa; F571H) (protein)
chain: B5 chain with V527H
notes: as for B5
For the protein B7, in data set [4], the Km stood at 238.1 ± 34.35 µM, the catalytic constant (kcat) is 0.0123 ± 0.00133 s⁻¹ and the kcat/Km was 50 M⁻¹ s⁻¹. In addition, in data set [5], the Km worked out at 18.05 ± 5.07 µM, the kcat is 0.0143 ± 0.0015 s⁻¹ and the kcat/Km was 800 M⁻¹ s⁻¹.

B8: SfCinS1 (Salvia fruticosa; F571L) (protein)
chain: B5 chain with V527L
notes: as for B5
B8: in data set [4], the Michaelis constant (Km) turned out to be 71.82 ± 17.63 µM, the kcat is 0.0107 ± 0.00133 s⁻¹ and the kcat/Km amounted to 150 M⁻¹ s⁻¹. In addition, in data set [5], the Km is 55.72 ± 9.22 µM, the kcat was 0.00733 ± 0.00117 s⁻¹ and the kcat/Km turned out to be 133 M⁻¹ s⁻¹.

For the origin of these results see paper PMC6707142, “Orthogonal monoterpenoid biosynthesis in yeast constructed on an isomeric substrate” (Nature Communications, 2019).
